Experimental findings from patent US10138493 are described below.

What all share (assay): cell_activity
The test system of data set [1] is synTF ZF 9-2. Conditions: 1x reporter, HEK293FT; KRAB and HP1 fusions also repress.
In data set [2] the test system is synTF ZF 8-1. Conditions: 1x reporter, HEK293FT; KRAB and HP1 fusions also repress.
In data set [3] the test system is synTF ZF 2-6. Conditions: 1x reporter, HEK293FT; KRAB and HP1 fusions also repress.
Data set [4] has as its system synTF ZF 3-5. Conditions: 1x reporter, HEK293FT; KRAB and HP1 fusions also repress.
In data set [5] the test system is synTF ZF 5-7. Conditions: 1x reporter, HEK293FT; KRAB and HP1 fusions also repress.
The test system of data set [6] is synTF ZF 6-4. Conditions: 1x reporter, HEK293FT; KRAB and HP1 fusions also repress.
Data set [7] has as its system synTF ZF 4-8. Conditions: 1x reporter, HEK293FT; KRAB and HP1 fusions also repress.
For data set [8], the system named is synTF ZF 7-3. Conditions: 1x reporter, HEK293FT; KRAB and HP1 fusions also repress.
In data set [9] the test system is synTF ZF 1-3. Conditions: 1x reporter, HEK293FT; KRAB and HP1 fusions also repress (p284, p286).

Turning to “AGACGCAGTATAGGACGACG (double strand) [Target 9]”, the activity (fold GFP activation) in data set [1] was over 10.
In turn, “AGACGCAGTATAGGTCGAAC (double strand) [Target 8]” showed an activity (fold GFP activation) in data set [2] of over 10.
The sequence “GGACGACGTTACGGACGTAC (double strand) [Target 2]” registered an activity (fold GFP activation) in [3] of over 10.
“AGACGTCGAAGTAGCCGTAG (double strand) [Target 3]” gave an activity (fold GFP activation) in data set [4] of over 10.
In data set [5], “TGAAGCAGTCGACGCCGAAG (double strand) [Target 5]” showed an activity (fold GFP activation) of over 10.
For the sequence “GGACGACGCGGTCTAAGAAG (double strand) [Target 6]”, the activity (fold GFP activation) in [6] is over 10.
Regarding “GGACGACGCCGATGTAGAAG (double strand) [Target 4]”, in [7], the activity (fold GFP activation) was over 10.
As to “CGACGAGGTCGCATAAGTAG (double strand) [Target 7]”, in data set [8], the activity (fold GFP activation) was over 10.
Consider “CGTCGAAGTCGAAGTCGACC (double strand) [Target 1]”, for which the activity (fold GFP activation) in data set [9] is over 10.
